The RNAGym collection of RNA variant scans (doi:10.7554/elife.90254)

B1: LINE1-mini (parent)
chain: GGCAGAGCUCAACACAGCGUGGCAAAGUGGCUGUGGCUAGACUGCC

Variants of: B1
Test: self-cleavage, relative activity (ratio to wild type); higher = more cleavage; in vitro, sequencing; the parent is a self-cleaving ribozyme

Variant | self-cleavage
G1A C31A | 0.12
U34G C37U | 0.1
G21A U34C | 0.14
C23G A24C | 0.41
C8U C31G | 0.17
G2U G5C | 0.04
G7C A16G | 0.06
A16U C23A | 0.19
A16U C23G | 0.1
G29C U32A | 0.31
G17C G30U | 0.05
G17C G30C | 0.25
G7U A39G | 0.06
G5U G17C | 0.06
A4C G7A | 0.87
G2U C31U | 0.02
C13U U32A | 0.11
G2C A39U | 0.1
U32G | 0.19
G22A A25G | 1.23
A14U G44A | 0.13
A25G A39G | 0.07
A14G A24U | 0.43
G29A G40A | 0.11

Variant | self-cleavage
C8A A25U | 0.36
C3U U43A | 0.14
C18G G27C | 0.38
A4U G17A | 0.06
C42A U43C | 0.09
A6G A26C | 0.14
G2C G44A | 0.17
G21A U38A | 0.89
C3U G7U | 0.11
G2U C18U | 0.05
C37A C45U | 0.08
U9A U43C | 0.14
A16C G36A | 0.12
C10U G27C | 0.23
C8U C13G | 0.29
G5A C18A | 0.1
U20G C37G | 0.07
G2C C15A | 0.06
A12U C15G | 0.06
G21A C37G | 0.04
C18U G36U | 0.06
G17U G27U | 0.35
C3G G44A | 0.35
G1A G29C | 0.28

Variant | self-cleavage
G1C U43G | 0.13
C18U C37U | 0.07
U28C C37G | 0.01
G22U C37G | 0.03
A25U U28A | 0.5
G2A C10G | 0.11
G1C G36U | 0.03
C3A U38G | 0.51
C8U G29U | 0.46
C15A G36A | 0.14
G7A A25G | 0.12
U32A U43G | 0.11
G22U G44C | 0.34
G21C G29U | 0.48
U20G A26G | 0.43
A6G C8G | 0.08
G5C G36A | 0.06
C10A A25G | 0.04
C18G G22C | 0.12
C18G G22U | 0.87
G21C A24C | 0.43
U28C G36A | 0.1
A11C U20C | 0.02
C3U U28G | 0.23

Variant | self-cleavage
C13U A16G | 0.09
A14C U43G | 0.01
G1C C42G | 0.01
G21A A25G | 1.4
C31U U34G | 0.04
A11U C23A | 0.16
A39U C45A | 0.18
C10U U28A | 0.16
A26G U38G | 0.01
G2U C37G | 0.04
G29C C37G | 0.02
G1C G40A | 0.03
A6G G21C | 0.13
A4C C15G | 0.04
C10G U32C | 0.03
G1U A12U | 0.08
G22A A41C | 0.09
C23U C45U | 1.09
A12U G17A | 0.05
C13U G35U | 0.18
G1C G22A | 0.12
G36A | 0.2
C13A A16G | 0.03
C45U | 1.43

Variant | self-cleavage
C37G G40C | 0.08
C23U A24G | 0.88
A39G C42A | 0.09
G30A C45G | 0.4
C3A U32G | 0.15
C3A U32A | 0.12
G17A G36U | 0.05
A24U G30A | 0.97
C13G U43A | 0.11
A25C C42U | 0.41
U32A U38G | 0.02
C8A A16U | 0.23
A12C G22U | 0.02
C10G U34C | 0.04
A11C G40C | 0.04
A24G U43G | 0.19
A11U A41U | 0.27
C18A G19U | 0.31
G2C C23U | 0.16
G36U C45A | 0.15
U9C A39C | 0.02
A26U C37A | 0.08
C13A U38A | 0.05
A12C G21A | 0.02

Variant | self-cleavage
A6U C18U | 0.93
A6G A39U | 0.08
G1C U38C | 0.06
A39U G44U | 0.12
A39U G44A | 0.18
C23G G40A | 0.07
U9C G27A | 0.03
A16G G21C | 0.34
G2C G21U | 0.12
G17C C18U | 0.08
A14G G36U | 0.12
A14U G17U | 0.1
C18U G30A | 1.78
U38C C45A | 0.35
G2C G17A | 0.08
A14G U28A | 0.39
A14G G35A | 0.07
G27C U34G | 0.2
C18A G44C | 0.22
U32G C46A | 0.2
A26G C31A | 0.11
G1C G2U | 0.08
G5C C46G | 0.11
G2U A16G | 0.05

Variant | self-cleavage
C15A U43C | 0.04
U9C A14G | 0.03
C3A C45G | 0.42
A11G A24U | 0.02
C13G C45A | 0.25
A25G C46G | 0.78
G17C G21C | 0.61
G17A U38C | 0.12
C8U A16U | 0.13
C18G U20A | 0.41
C3U C46G | 0.37
G7C G35C | 0.06
G27A C45A | 0.79
C10G A14G | 0.09
A4G U20C | 0.48
U28G C37U | 0.03
A12U A14G | 0.18
A11U C46A | 0.09
A11U C46U | 0.12
C15G U43G | 0
G1C G27A | 0.16
G1U C46G | 0.74
C10A C15A | 0.04
A12G C31U | 0.05

Variant | self-cleavage
G27A C46A | 1.19
G1A U9C | 0.1
G5C C15A | 0.05
G22C U38G | 0.05
A26U U38C | 0.48
A4G C46G | 0.24
A4G C46U | 0.39
A24C G33U | 0.04
A16U C18A | 0.05
G1C U20G | 0.05
G1A U38A | 1.36
U9G G40A | 0.08
A14C C31U | 0.02
G1U U32G | 0.05
A6C U20C | 0.33
A4C G19U | 0.06
G17A C46A | 0.14
G22A G29A | 0.27
A4U U34A | 0.08
C8U G19U | 0.24
C23U G30U | 1.38
C18A A26U | 0.69
A6C A25U | 0.52
U28A G35U | 0.18

Variant | self-cleavage
U9G G17U | 0.08
G36U A39G | 0.05
U34C U43G | 0.31
A6C A12U | 0.16
U34A U43A | 0.06
A26G A39U | 0.5
G21C C37G | 0.05
C3G A6G | 0.08
G19C U20A | 0.3
G5A A41C | 0.06
C8U A26C | 0.21
A24C C31U | 0.12
G1A A11G | 0.06
A11G A16C | 0.02
U9C C46G | 0.03
A14U C45U | 0.36
A4U A24C | 0.4
A16G U34A | 0.02
C18U U20G | 0.41
A16U C45U | 0.11
G22A U34A | 0.2
A16U | 0.15
A26C A39C | 0.09
G5C U43A | 0.05

Variant | self-cleavage
G33U C45U | 0.08
G2U A25G | 0.03
U38G A39U | 0.13
G35C A39U | 0.06
A16G C37G | 0.02
A11G C42A | 0.02
G17A A24G | 0.18
U32G U43C | 0.07
G27A G40C | 0.17
A26G U43G | 0.03
G7C G19C | 0.05
C18U U32C | 0.16
C23G C42A | 0.19
G1C C18A | 0.04
A14G | 0.58
G22U C23A | 1.25
C3A G29C | 0.25
G5C A14C | 0.07
A4U C37U | 0.15
U34C A41U | 0.06
C23U U28A | 0.82
U9A C10G | 0.04
A14C G40A | 0.09
C8U G30C | 0.26

Variant | self-cleavage
A4C G5C | 0.08
A14C C23A | 0.21
C3G C37U | 0.5
U9A G30A | 0.18
C13G C46U | 0.46
A12U C18G | 0.17
A24G A39C | 0.27
C3U A26G | 0.34
U9G U34C | 0.06
G5U G30A | 0.18
A16U G27U | 0.13
C3U A6C | 0.5
C13A G44A | 0.09
G17C G40A | 0.04
G1C C46A | 0.28
C13G | 0.22
A16U U43A | 0.05
U9G A25C | 0.13
C18G A41G | 0.08
C18G G40C | 0.05
C37U A39U | 0.04
G29U G44C | 0.44
C3A C15A | 0.24
G1C C37U | 0.02

Variant | self-cleavage
G17U G35C | 0.18
G17C G22U | 1.51
A11C U28G | 0.05
G21U G22U | 1.4
A11U G30U | 0.18
C8U G44U | 0.35
C8A G33U | 0.18
C8A G33C | 0.28
U9C G21A | 0.04
G2U U28C | 0.06
C13A C18U | 0.09
U43G C46G | 0.32
U9G C46A | 0.1
G7U A24C | 0.06
C3G G7C | 0.05
G27C A39C | 0.11
U43C C45U | 0.13
A6U A24G | 0.94
G7C C23U | 0.1
U32A A39C | 0.06
C18U G44U | 0.07
G27U A41C | 0.06
C31U G44U | 0.05
U34G G35C | 0.12

Variant | self-cleavage
U9A C37G | 0.11
C13U A26G | 0.14
C15G A24C | 0.02
U32G U38C | 0.12
G7U C23A | 0.06
A12U U38G | 0.02
C3A G21U | 0.47
C13U U28G | 0.08
A4C U20C | 0.05
A14C C46A | 0.13
G19A C23G | 0.41
C8G G30A | 0.21
C8A U38G | 0.07
C8A C31G | 0.15
A41C G44U | 0.11
A11U G36U | 0.03
G17U G22C | 0.61
G17U C37U | 0.05
G17U G30A | 0.82
A41C C42U | 0.05
C18G G44A | 0.07
U28A U34C | 0.07
A11U C13A | 0.02
A24C G29C | 0.54

Variant | self-cleavage
G2A U34C | 0.19
U28C G33A | 0.14
G22A U43A | 0.06
G2C C8G | 0.08
A12G G29U | 0.02
G21C C46A | 1.13
G19A G22U | 0.99
C15U A25C | 1
C23U G33U | 0.16
C13U G21A | 0.22
U38G U43A | 0.02
G19C G33A | 0.15
G19C G33U | 0.34
U9C G29C | 0.02
G33A G36C | 0.05
U9G G19A | 0.18
G1U U43A | 0.05
C15A G30A | 0.06
G33U C42G | 0.07
U43C C46G | 0.12
A14G A26U | 0.59
A4G G36A | 0.54
